# Changes are numbered by the printed parent chain.
# Columns and labels:
# [1] = target: T1, Human CD39-L3 (NTPDase3, ENTPD3) (Homo sapiens, UniProt O75355); assay: ELISA titration on CD39-L3; format: binding; conditions: result in words
# T1 sequence (O75355 1-529): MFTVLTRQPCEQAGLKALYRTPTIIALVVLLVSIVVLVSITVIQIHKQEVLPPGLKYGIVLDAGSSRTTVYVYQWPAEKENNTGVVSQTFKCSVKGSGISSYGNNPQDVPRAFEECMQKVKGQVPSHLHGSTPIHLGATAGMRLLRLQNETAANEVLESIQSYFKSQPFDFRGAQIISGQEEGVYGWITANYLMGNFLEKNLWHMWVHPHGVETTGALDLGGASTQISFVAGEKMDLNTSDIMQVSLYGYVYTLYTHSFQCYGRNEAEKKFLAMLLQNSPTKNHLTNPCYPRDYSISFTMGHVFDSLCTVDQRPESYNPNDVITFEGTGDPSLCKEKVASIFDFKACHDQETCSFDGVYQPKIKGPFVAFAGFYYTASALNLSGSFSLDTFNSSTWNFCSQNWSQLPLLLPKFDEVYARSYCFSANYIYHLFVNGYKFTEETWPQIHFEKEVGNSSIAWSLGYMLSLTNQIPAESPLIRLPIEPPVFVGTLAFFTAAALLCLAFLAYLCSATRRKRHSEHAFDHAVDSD
# Method: Antibody I-394 was tested for binding to recombinant human CD39 isoforms (Rec-huCD39 isoforms) having amino acid sequences shown below were coated in 96-well plate in PBS 1× at 500 ng/ml or 1 μg/ml at 4° C. overnight. Wells were washed in TBS Tween 20, and further saturated 2H at RT in TBS Blocking buffer. Dose range concentration of primary antibody was incubated in TBS blocking buffer for 2 h at RT. Wells were washed in TBS Tween 20. […] Optical density was measured on Enspire™ at OD=450.
# [2] = target: T2, CD39 mutants transfected in Hek-293T cells (Homo sapiens, UniProt P49961, E143A/N99A/Q96A/R147E); assay: Epitope mapping: binding to CD39 mutants by flow cytometry; conditions: mutant 5: Q96A, N99A, E143A, R147E; vs wild-type CD39
# T2 construct: expressed in transfected cells; host or cells: HEK-293T cells
# T2 sequence (P49961 1-510 Q96A/N99A/E143A/R147E): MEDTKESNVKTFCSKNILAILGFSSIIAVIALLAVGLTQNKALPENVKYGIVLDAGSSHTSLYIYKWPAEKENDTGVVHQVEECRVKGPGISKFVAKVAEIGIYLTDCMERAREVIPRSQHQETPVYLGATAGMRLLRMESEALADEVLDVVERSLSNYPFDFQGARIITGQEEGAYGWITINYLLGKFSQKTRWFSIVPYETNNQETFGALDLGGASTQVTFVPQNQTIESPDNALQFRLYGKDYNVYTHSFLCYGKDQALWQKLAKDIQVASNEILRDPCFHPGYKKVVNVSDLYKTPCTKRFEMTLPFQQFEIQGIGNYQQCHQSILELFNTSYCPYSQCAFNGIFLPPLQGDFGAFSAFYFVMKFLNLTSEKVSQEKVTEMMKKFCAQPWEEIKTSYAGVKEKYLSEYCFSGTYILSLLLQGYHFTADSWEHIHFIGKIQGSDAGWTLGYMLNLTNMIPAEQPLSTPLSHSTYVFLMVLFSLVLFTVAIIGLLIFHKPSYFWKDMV
# Method: (§1) CD39 mutants were generated by PCR. The sequences amplified were run on agarose gel and purified using the Macherey Nagel PCR Clean-Up Gel Extraction kit (reference 740609). The purified PCR products generated for each mutant were then ligated into an expression vector, with the ClonTech InFusion system. The vectors containing the mutated sequences were prepared as Miniprep and sequenced. After sequencing, the vectors containing the mutated sequences were prepared as Midiprep using the Promega PureYield™ Plasmid Midiprep System. HEK293T cells were grown in DMEM medium (Invitrogen), transfected with vectors using Invitrogen's Lipofectamine 2000 and incubated at 37° C. in a CO2 incubator for 48 hours prior to testing for transgene expression. The targeted amino acid mutations in the table 1 below are shown using numbering of SEQ ID NO: 1.
# (§2) In order to define the epitopes of anti-CD39 antibodies, we designed CD39 mutants defined by substitutions of amino acids exposed at the molecular surface over the surface of CD39. Mutants were transfected in Hek-293T cells, as shown in the table 1, using numbering of SEQ ID NO: 1.
# (§3) Dose-ranges of I-394 (10-2.5-0.625-0.1563-0.0391-0.0098-0.0024-0.0006 μg/ml) are tested on the 20 generated mutants by flow cytometry. […] Mutant 5 contains amino acid substitutions at residues Q96, N99, E143 and R147.
# (§4) Mutants were transfected in Hek-293T cells, as shown in the table 1, using numbering of SEQ ID NO: 1. Dose-ranges of antibodies I-394 were tested on the 20 mutants by flow cytometry. […] Mutant 19 includes substitutions at residues R138, M139 and E142. The core epitope of I-394 thus includes one or more (or all of) residues R138, M139 and E142.
# (§5) Mutants were transfected in Hek-293T cells, as shown in the table 1, using numbering of SEQ ID NO: 1.Dose-ranges of test antibodies (10-2.5-0.625-0.1563-0.0391-0.0098-0.0024-0.0006 μg/ml) are tested on the 20 generated mutants by flow cytometry.
# [3] = target: T3, CD39 mutants transfected in Hek-293T cells (Homo sapiens, UniProt P49961, E142K/M139A/R138A); assay: as above; conditions: mutant 19: R138A, M139A, E142K; vs wild-type CD39
# T3 construct: expressed in transfected cells; host or cells: HEK-293T cells
# T3 sequence (P49961 1-510 R138A/M139A/E142K): T2 sequence (P49961 1-510 Q96A/N99A/E143A/R147E) with A96Q, A99N, R138A, M139A, E142K, A143E, E147R
# Method: as §1, §2, §3, §4, §5
substance,measurement,setting,value
"I-394: anti-CD39 antibody, VH SEQ ID NO: 6, VL SEQ ID NO: 7; human IgG1 Fc with L234A/L235E/G237A/A330S/P331S",binding to CD39-L3 in ELISA,[1],not
same,binding to cells expressing mutant 5 of CD39,[2],strongly reduced binding
same,binding to cells expressing mutant 19 of CD39,[3],complete loss of binding
